# Laboratory results reported in the DeepSol protein solubility set.
# Test: soluble on expression in E. coli; label from the status in PepcDB or PDB records
row,Sequence,soluble on expression in E. coli
1,MTKKKLLKALAVAAIATSLVACSDSSSNDKTLTTAVSSGSSVATTTVAAPADNTNVTANASYIIGYGMGSSIATDKNIKTFNLNNDKVMAGFEDAINAKKPAIPLEDIANNMNTLRDKMQQQMNQKAVTSFLSVQDGIYNSDLTPKSDIKNPDVVVYEFFDYQCMYCSKLAPEIEKIMKDNSDVQVVFAEFPIFGQKLPASEYAAEVSTAIYKLYGADAYVKYHNGIFATGEDEGSLKNATVDNVAKQAGADMTKVNKAIQDDKIADHLKDMLKMGFGQLGIQGTPFLVIAPAKNATVANTTIIGGYTTADGIQAAINKAKSTATTTSTSNNGQTDTKQAQNDIATVTAEAQATSGSTEQLAQPR,not soluble
2,MLTLKGKYNEAKVFTDNVDDNTIGQIITLCNQPFAKDSKIRIMPDTHGGKGCVIGTTMTIQDKIVPNLVGVDIGCGLYVVKLKPGKLKMDFDKLDKVIRERVPSGSKTHDKPVDEFDLEGIVAPIHHGWVARSIGTLGGGNHFIEVNQGSDGIYLVIHSGSRVLGKEIAEYHQEVAYKRLDILRKELKLDATAAKKRGNLEMANNLNGEREQVKLDYDLSYVTGVDLKNYLNDMEIAQKFAARNRYVMAQIILKAMKWDKAVVSAFDCVHNYIDIEHNMLRKGATSAQLGEQIIVPLNMREGSILATGKGNADWNYSAPHGAGRMLSRSKAKAQISLESYQAAMKDVWTTSVSKKTIDEAPKAYKSAKQLLADVEDTMEIQEIIKPLYNFKALEHHHHHH,soluble
3,MSLAQKISATPAAGAQMTLAQADGIAFRELSFPEALKRAEVEDKLLFVDCFTTWCGPCKRLSKVVFKDSLVADYFNRHFVNLKMDMEKGEGVELRKKYGVHAYPTLLFINSSGEVVYRLVGAEDAPELLKKVKLGVESGGLSGLKKRYEAGDRDLAFICGYINALSAANREQEAGKVAADFLQGSEQKMLEDEDYFLVFYYYVHDVNSSAFQYAVNHKKEITDKFPRQAASLDRRLLEDWIAGSYAYLKVDESNHCTFDEQGLDAYVAKMKQMNVAEADMIGESLRLSRDGIMKQWDSFVKRGDKILASHTILGDEGHLLQWVNWLNKECADMSLREKAAQWCDKACEELIKKNEEIKKNLPPGAIPAISMVDHKGQLLQVAEKLRKLMQQSEGHHHHHH,soluble
4,MSLKTLAFDTSNKTLSLAILDDETLLADMTLNIQKKHSVSLMPAIDFLMTCTDLKPQDLERIVVAKGPGSYTGLRVAVATAKTLAYSLNIALVGISSLYALAASTCKQYPNTLVVPLIDARRQNAYVGYYRQGKSVMPQAHASLEVIIEQLVEEGQLIFVGETAPFAEKIQKKLPQAILLPTLPSAYECGLLGQSLAPENVDAFVPQYLKRVEAEENWLKDNEIKDDSHYVKRIEGHHHHHH,soluble
5,MSLIYPEKNREVLVQLMNQSKNASLIQAWIDDGNTTIAPEKIQVTFILTPPVSRVAGGSGQQLKIRKMPNNLPHNKESLFYLNVLDIPPNNPQNAGKNKIKLALQNRIKLLWRPSGIAPVDKKSLSQLNIKKKNNAISINNETANWITVTTIKAQNVKVNNESILLPPFSHNDITLKNNHASEYELTVVDDYGNNIHSKIAAREGHHHHHH,not soluble
6,EIQMTQTTSSLSASLGDRVTISCRASQDISNFLNWYQQKPDGTVKLLIYYTSTLHSGVPSRFSGSGSGTDYSLTISNLEQEDIATYFCQQGKTLPPTFGGGTKLEIKRADAAPTVSIFPPSSEQLTSGGASVVCFLNNFYPKEINVKWKIDGSERQNGVLDSWTEQDSKDSTYSMSSTLTLTKDEYERHNSYTCEATHKTSTSPIVKSFNRNEC,soluble
7,MSFDANIATQYYILMTIKTFRCADPETLFKLGRVARFVNIERPALRKLKQLDLARCIEDIRVPPANRPEILKGDRAGQHSIRINDQWRVCFRWTGTDAEDVEIVDYH,not soluble
8,MGHHHHHHSHMIQYIPQRPPIVMISTLVSAEKNVTETELEIPAHGLFVKDGVLHEPGLIENVAQTAAAGVGYACTLTSQPVPVGFIGAVKNLEIDYLPKVGDVLETRVEVLEEIFDMTLIKGESFVKGKRVLTCEMKIVLKK,not soluble
9,GMPENTAMAALLPEESLFFRELVKQWRAQDSYGTWEKKSDMELLAPYVLDKEQRRAIPIIGDPDPEILWRVELFYNAVGLATERASGVMVSPMMKMSHEGFGRMVLIAGRLIVVNKQLRDVHRFGFPSMEKLAEEGDKLVAGALEMIEKFPEVARF,soluble
10,MGSDKIHHHHHHAATLLASCNKDEEETEIQGFKVLEYRPAPGQFINEGFDCQTMEEANAYAEERFNKKLYVSLGSFGGYITVKMPKEIKNRKGYDFGIIGNPFSGSSEPGIVWVSEDANGNGKADDVWYELKGSDEPERDYSVTYHRPDAAGDIPWEDNKGESGIIKYLPQYHDQMYYPNWIKEDSYTLKGSMLEARTEQEGGIWKNKDFGKGYADNWGSDMAKDDNGNYRYNQFDLDDAVDQNGNPVTLERIHFVKVQSAILKNVESIGEVSTEVVGFKAF,not soluble
11,MAARKLIARINPTNSALFVCDLQEKFASNIKYFPEIITTSRRLIDAARILSIPTIVTEQYPKGLGHTVPTLKEGLAENTPIFDKTKFSMCIPPTEDTLKKVQNVILVGIEAHVCVLQTTYDLLERGLNVHVVVDAVSSRSHTDRHFAFKQMEQAGAILTTSEATILGLVGGSDHPKFKEVQKLILTSAPDTGLVPLSKL,soluble
12,MGHHHHHHSHTVCSLSSGKFGTLLSGSWDTTAKVWLNDKCMMTLQGHTAAVWAVKILPEQGLMLTGSADKTVKLWKAGRCERTFSGHEDCVRGLAILSETEFLSCANDASIRRWQITGECLEVYYGHTNYIYSISVFPNCRDFVTTAEDRSLRIWKHGECAQTIRLPAQSIWCCCVLDNGDIVVGASDGIIRVFTESEDRTASAEEIKAFEKELSHATIDSKTGDLGDINAEQLPGREHLNEPGTREGQTRLIRDGEKVEAYQWSVSEGRWIKIGDVVGS,not soluble
13,MAHHHHHHMKALKLFTNRICPFCQRVLITAKEKRVTLEEVEVPLGDDMPQWYKELNPRETVPMLQVDGKKCMIESDLISRYIDRISSPENALIGSSPYQRHRVEFFLSEIGDLVKAYFGLVRDPFNEEKRKSVDHNTAYIEGIIAEHQGDGPYFLDDTFSMAEVMVVPFLACFRPVLSYYCGYDIFHEAPRLKKMYVTSMQRTTVKETISKPEEYIIGFKSKVPKSHVTWSLAPGYVLFVNKYSPFSDRPRLACALKNIDLPMLEIDLKQLPSWFRWFNQRETVPTLLTPRGTYVHESQLIVHYLDDGFPEHGPALLPKDADGSYHVRFVESNVDYFMDAMYSLIKDPKNTNAKEEFDWAAGELEKLLAEHQFGEGPFFGGATMNAADVSLLPMLVHLKACTPDLTEGQDLLANYKLLAAAAEAGLTSEAGKKVFLSLSEYSSIYKTFLRPSS,soluble
14,MKTTPDILDQIRVHGADAYPEEGCGFLLGTVTDDGDNRVAALHRATNRRSEQRTRRYELTADDYRAADAAAQEQGLDVVGVYHSHPDHPARPSATDLEEATFPGFTYVIVSVRDGAPEALTAWALAPDRSEFHREDIVRPDPEAPLEHHHHHH,soluble
15,MHEYYYIYWYLSEFLYAWLMSTLSRADGSQMAEERIMEEQQKGRSSKKTKKKKKVRPLSREITMSQAYQNMCAGMFKTMVAFDMDGKVRKPKFELDSEQVRYEHRFAPFNSVMTPPPVHYLQFKEMSDLNKYSPPPQSPELYVAASKHFQQAKMILENIPNPDHEVNRILKVAKPNFVVMKLLAGGHKKESKVPPEFDFSAHKYFPVVKLVLEHHHHHH,not soluble
16,MAGDPNSMNLKQSIEEIINQPEYEPMSVSDFQDALGLSSADSFRDLIKVLVELEQSGLIERTKTDRYQKKHSSKGHSKLIKGTLSQNKKGFAFLRPEDEDMEDIFIPPTKINRALDGDTVIVEIHQSKGEHKGKIEGEVKSIEKHSVTQVVGTYSEARHFGFVIPDDKRIMQDIFIPKGQSLGAVDGHKVLVQITKYADGSDNPEGHISAILGHKNDPGVDILSIIYQHGIEIEFPDEVLQEAEAVPDHIENTEIKGRHDLRDELTITIDGADAKDLDDAISVKKLANGNTQLTVSIADVSYYVTEGSALDKEAYDRATSVYLVDRVIPMIPHRLSNGICSLNPNVDRLTLSCRMEIDASGRVVKHEIFDSVIHSDYRMTYDAVNQIITEKDPNIREQYKEITPMLDLAQDLSNRLIQMRKRRGEIDFDINEAKVLVNEDGIPTDVQLRQRGEGERLIESFMLIANETVAEHFSKLDVPFIYRVHEQPKSDRLRQFFDFITNFGIMIKGTGEDIHPTTLQKVQEEVEGRPEQMVISTMMLRSMQQAHYDDVNLGHFGLSAEYYTHFTSPIRRYPDLTVHRLIRKYLIEKSMDNKEVKRWEDKLPELAEHTSKRERRAIEAERDTDELKKAEYMIQHIGDEFEGIVSSVANFGMFIELPNTIEGMVHIANMTDDYYRFEERQMALIGERQAKVFRIGDTVKVKVTHVDVDERLIDFQIVGMPLPKNDRSQRPARGKTIQAKTRGKSLDKSKSDDKGRKKKGSQRKGKNERKNDKSGNSKHKPFYKDKSVKKKARRKKKLEHHHHHH,soluble
17,MPAPLWSPSAERIAASRMEAFRRFVNQRHALGLVDYPALHAWSVQRREAFWQAIVDFFEVRFQQPPRAVLEEGAQMPSARWFPGATLNFAEHLLRRRDDAPALIAVSEDGRREVLSHAELARHVAGLQKRLAALGIGPGDRVAALMPNTWQTVVGMLATASLGATWSSCSPDFGTQGVIDRFGQIEPRVLIACAGYRYAGKSLDLTAKLNEVLAGLPGLEQLLVVPYDRPQAQPQDYRCQAQVALWDGFYQAEGEPVFTPVPFEQPLYILYSSGTTGVPKCIVHATGGVLLQHLKEHGLHTDLGDGDRLFYYTTCGWMMWNWLASGLAVGASLVLYDGSPFHPGPERLLDLIDAEDIAVFGASAKYLAALEKAGMRPRHSHRLDSLRTLLSTGSPLAHESFDYVYRELKSDLCLSSISGGTDIVSCFAIGNPVLPVWRGELQCKALGMAVEIWDDDGRRLASGKGELVCTRHFPSIPLGFWNDPDGTRFHDAYFASFPGVWAHGDYAEETVHGGLVIHGRSDAVLNPGGVRIGTAEIYRQVEKVEEVLESIAIGQDWQGDVRVLLFVRLRDGVRLDEPLRERIRQTIRANATPRHVPAKIIQVADIPRTLSGKIVELAVRNVIHGRPVKNTDALANPQALELYRDLAEL,not soluble
18,HHHHHHSSGLVPRGSGMKETAAAKFERQHMDSPDLGTDDDDKASSSANECISVKGRIYSILKQIGSGGSSKVFQVLNEKKQIYAIKYVNLEEADNQTLDSYRNEIAYLNKLQQHSDKIIRLYDYEITDQYIYMVMECGNIDLNSWLKKKKSIDPWERKSYWKNMLEAVHTIHQHGIVHSDLKPANFLIVDGMLKLIDFGIANQMQPDTTSVVKDSQVGAVNYMPPEAIKDMSSSRENGKSKSKISPKSDVWSLGCILYYMTYGKTPFQQIINQISKLHAIIDPNHEIEFPDIPEKDLQDVLKCCLKRDPKQRISIPELLAHPYVQIQTHPVNQMAKGTTEEMKYVLGQLVGLNSPNSILKAAKTLYEHYSGGESHNSSSSKTFEKKRGKK,soluble
19,MGSDKIHHHHHHMMTKTKADKYPQRVRNELRFRELTVLRVERAGAAFQRIVLGGEALEGFASHGFDDHTKLFFPEPGAAFTPPQVTEEGIDWGEGVRPATRDYTPLYDAERHELAYDFYIHDGGIASRWALEAKVGDKLVIGGPRGSLVVPEDYAWQLYVCDESGMPALRRRLLGLRQLPARPQVTAIVTIADASYKDYLADLDGFNIEWVVGHNPAFVAERLAQVKVPAEDYFIWLTGEGAVVKSLLARFEDESIDQQLVRSQAYWHSK,not soluble
